Experiments:
[1] = target: PltB subunit of typhoid toxin (Salmonella enterica serovar Typhi); experiment: cryo-EM structure
[2] = target: tagless PltB pentamer (Salmonella enterica serovar Typhi); experiment: SEC

“PltB subunit of typhoid toxin (natural protein)” was tested, and the stoichiometry N [1] was 5.
Work on tagless PltB pentamer (natural protein) yielded a stoichiometry N [2] of 5.
